Several values for one entry are separate records, joined by “and”; a condition that tells them apart may be missing. Equal entries are not always repeated. Where two headings read alike, the source gives them in different places.
How the values were obtained:
[1] = target: T1, IF2-bound 30S IC (Escherichia coli, UniProt P0A705); assay: 30S IC formation by MST, guanosine nucleotide titration; assay type: binding; conditions: for MST Average / MST Replicates: Fig 6E; for Kd: Fig 3F, GTP titration;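 as to MST Average: lower thermophoresis signal means Bpy-tRNAi dissociation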
T1 construct: 6xHis (N); made in house
Description: To monitor the interaction of initiator tRNA and 30S ribosomal subunits, we used Microscale Thermophoresis (MST) with a fluorescently labelled initiator tRNA (Bpy-tRNAi) (Fig 1B). MST allows to measure fluorescence in a constrained space. Changes on the readout derive from molecular drifts resulting from small thermal equilibrium perturbations. Upon equilibrium perturbations, the patterns of Bpy-tRNAi migration away from the observation space are related to bound and unbound states (Fig 1B). […] On the contrary, a decrease in thermophoresis indicated the dissociation of Bpy-tRNAi. The relation between fluorescence measured at both equilibriums (Ff to Fi, after and prior to the perturbation, respectively) as a function of ligand concentration allowed to determine dissociation constants of the interaction (Fig 1C).
Continuous lines indicate nonlinear regression fittings with a quadratic equation. Three measurements were performed; mean and standard deviation are plotted (S1 Data). (B) as (A) to measure the concentration dependence for each tested guanosine nucleotide at constant IF2 (1 μM). […] Continuous lines show best fits using exponential functions. (D) Formation of 70S IC as measured by Bpy-tRNAi accommodation in the P site of the ribosome; 0.1 μM 30S ICs were formed with Bpy-tRNAi and rapidly mixed with 0.3 μM 50S subunits on a stopped-flow apparatus as described in [14]. Colors are as in (C). Continuous lines show best fits using an exponential function for a single reaction step. Each stopped-flow trace results from the mean of 5 to 7 replicates.
(§1) MST was calculated from the respective fluorescence time dependencies (S3 Fig). […] Symbols as in (B). […] Continuous lines indicate nonlinear regression fittings with quadratic (B and E) or same-site competition (G) functions. Three measurements were performed; mean and standard deviations are plotted (S1 Data).

[2] = target: T2, 30S-bound IF2 (30S IC) (Escherichia coli, UniProt P0A705); assay: ppGpp (or GDP) to GTP competitive assay for 30S IC formation by MST; assay type: binding; conditions: S4G Fig
T2 construct: 6xHis (N); made in house
Description: as §1
[…] Symbols are as indicated, 3 measurements were performed, and mean and standard deviation are plotted (S1 Data). Continuous lines show nonlinear regression fittings with a same-site inhibition model. […] (PDF) Click here for additional data file.

B1: mTufA: TufA mRNA with full-length 5′ UTR, in vitro transcribed, codes for EF-Tu (nucleic acid)
chain: GGUUCUAUCGCCUUUAAAGAAGGCUUUAAGAAAGCGAAACCAGUUCUGCUUGAGCCGAUCAUGAAGGUUGAAGUAGAAACUCCGGAAGAGAACACCGGUGACGUUAUCGGUGACUUGAGCCGUCGUCGUGGUAUGCUCAAAGGUCAGGAAUCUGAAGUUACUGGCGUUAAGAUCCACGCUGAAGUACCGCUGUCUGAAAUGUUCGGAUACGCAACUCAGCUGCGUUCUCUGACCAAAGGUCGUGCAUCAUACACUAUGGAAUUCCUGAAGUAUGAUGAAGCGCCGAGUAACGUUGCUCAGGCCGUAAUUGAAGCCCGUGGUAAAUAAGCCUAAGGGUUAAUACCAAAGUCCCGUGCUCUCUCCUGAAGGGGAGAGCACUAUAGUAAGGAAUAUAGCCGUGUCUAAAGAAAAAUUUGAACG
MST Average ([1]; GTP 0.49 μM): 1014.52 a.u.
MST Replicates ([1]; GTP 0.49 μM): 1011.10 a.u. and 1014.70 a.u. and 1017.78 a.u.
MST Average ([1]; GTP 1.95 μM): 1035.39 a.u.
MST Replicates ([1]; GTP 1.95 μM): 1032.39 a.u. and 1034.94 a.u. and 1038.85 a.u.
MST Average ([1]; GTP 3.91 μM): 1049.68 a.u.
MST Replicates ([1]; GTP 3.91 μM): 1044.99 a.u. and 1049.25 a.u. and 1054.80 a.u.
MST Average ([1]; GTP 7.81 μM): 1070.36 a.u.
MST Replicates ([1]; GTP 7.81 μM): 1070.17 a.u. and 1070.71 a.u. and 1070.18 a.u.
Kd ([1]; read-out: Kd (μM) of GTP for the 30S IC programmed with the labelled mRNA, Average): 0.28 µM
Kd ([1]; read-out: Kd (μM) of GTP for the 30S IC programmed with the labelled mRNA, single replicate): 0.3 µM and 0.27 µM
MST Avg ([2]; Log [GDP] 0.29): 1108.89 a.u.
MST Replicates ([2]; Log [GDP] 0.29): 1106.67 a.u. and 1109.49 a.u. and 1110.53 a.u.
MST Avg ([2]; Log [GDP] 0.59): 1108.25 a.u.
MST Replicates ([2]; Log [GDP] 0.59): 1104.73 a.u. and 1108.81 a.u. and 1111.20 a.u.
MST Avg ([2]; Log [GDP] 0.89): 1106.94 a.u.
MST Replicates ([2]; Log [GDP] 0.89): 1105.25 a.u. and 1107.28 a.u. and 1108.30 a.u.
MST Avg ([2]; Log [GDP] 1.19): 1104.11 a.u.
MST Replicates ([2]; Log [GDP] 1.19): 1101.85 a.u. and 1104.36 a.u. and 1106.13 a.u.
MST Avg ([2]; Log [GDP] 1.49): 1094.23 a.u.
MST Replicates ([2]; Log [GDP] 1.49): 1091.94 a.u. and 1094.86 a.u. and 1095.88 a.u.
MST Avg ([2]; Log [GDP] 1.80): 1077.93 a.u.
MST Replicates ([2]; Log [GDP] 1.80): 1075.66 a.u. and 1079.00 a.u. and 1079.14 a.u.
MST Avg ([2]; Log [GDP] 2.10): 1056.10 a.u.
MST Replicates ([2]; Log [GDP] 2.10): 1053.33 a.u. and 1057.00 a.u. and 1057.97 a.u.
MST Avg ([2]; Log [GDP] 2.40): 1017.56 a.u.
MST Replicates ([2]; Log [GDP] 2.40): 1014.74 a.u. and 1018.61 a.u. and 1019.33 a.u.
MST Avg ([2]; Log [GDP] 2.70): 975.78 a.u.
MST Replicates ([2]; Log [GDP] 2.70): 973.53 a.u. and 976.74 a.u. and 977.08 a.u.
